Experimental data from patent publication US7063845 (KIRIN BEER, dated 2006).

Target: T1, human CD40 on the cell surface (EL-4 cells transfected with full length human CD40 cDNA); Ramos B cells; human … (human, UniProt P25942 21-277)
T1 construct: whole, on cells; Ramos and peripheral B cells carry their own CD40; also called cell surface human CD40
Assay: FACS on EL-4 cells expressing human CD40

T1 sequence (P25942 21-277): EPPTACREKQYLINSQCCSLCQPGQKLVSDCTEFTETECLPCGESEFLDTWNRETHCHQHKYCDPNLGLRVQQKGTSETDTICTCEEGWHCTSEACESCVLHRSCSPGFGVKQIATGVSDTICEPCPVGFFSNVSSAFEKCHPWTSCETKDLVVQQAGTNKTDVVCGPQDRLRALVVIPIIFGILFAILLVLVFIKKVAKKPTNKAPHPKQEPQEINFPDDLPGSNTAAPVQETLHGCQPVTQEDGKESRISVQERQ

- binding result: binds
B1: recombinant human anti-CD40 antibody F5-77 (antibody, V domains shown)
VH: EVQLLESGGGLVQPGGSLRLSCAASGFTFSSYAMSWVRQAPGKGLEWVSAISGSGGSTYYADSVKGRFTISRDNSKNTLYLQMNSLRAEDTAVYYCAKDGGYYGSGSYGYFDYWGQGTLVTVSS
VL: DIQMTQSPSSVSGSVGDRVTITCRASQGISSWLAWYQQKPGKAPKLLIYAGSSLQSGVPSRFSGSGFGTDFTLTISSLQPEDFATYYCQQASSFPRTFGQGTKVEIK
notes: also called F5-77 (K1H1); printed F5-17 in claim 19
